Measurements: the DeepSol protein solubility set

assay: soluble on expression in E. coli; label from the status in PepcDB or PDB records

Sequence	soluble on expression in E. coli
MSLNVGYLCTYTPKELIDAAGFTPIRIFAGDMQISLATAHIQSYACSQARGSLERALRGELDVQAVVFTRCCDTLMRLADIWERNTDMRVYNIEFPTRVEERSKDYYFNELKDFVKVLEEWGGGVTLESLRESLKLYHELEEKLKRLFSLKPDYEAAKRVQEMNVREAIKFVDERLRKAESEGGKPRVLITGSVCPFVEVYTLFEEAGFALKDDICTGTRFFTFNTPPREIGSVDEGLRFLVDKYFEKAPCPTKHFPNDDRFKYILEMAKDCDGVVFLLLKFCEPHFYDYPQLKERLEEMGKKVLLLELEFPIASIEQLRTRIEAFYEVIAEGGSHHHHHH	soluble
MAHHHHHHMLKACLPRHLRVTPLLRVWAAEEDDANAPPTTFKNVKPGRLLRLWRQIRQRAWVAFTWDEEWTSPGSEGYLHQQRLEQVCFAPLSAYGMVPGSYCDPLLYNTKNTSPFRWHVANTSSDIVGHWYMEADEIFRIKDWQPKNPDDPTEMFPRPPQQILKWDETVDEHGNRTFRYKYRYDFMGPTGMWEAYPRYPFSHLYLNGQDHHGRAEGYGFKQGHLLRCSEEEEEVLRRIMEEEDKEWEMVKRTEVVQEPWSYPGKIRPQDFNGAVERAKARFREQIKQGKETDPSEDPDYDLVQAGEYVEPRDGPRAEWRHLWTSNRAKGEPLPYQVTFNDGITFEDNEEKPPVHPASHYEVKPKEAPYKKYEEQDTKEADEKQKKLKEQWEKSFEESISRHEKTVGDGKTSGGNSDSRSSGSAADSGAKEPPK	not soluble
MDPSMYPGASATYLSYPQQNASQDYLGAYAAQTTTTTRNTANGSTSSDHLLGDPSSSCSPRETSPSTTSLVLTIRLLMQGKEVGSIIGKKGDQIKKIREESGAKINISDGSCPERIVTITGTLGVIGKAFNMVCNKFEEDMLLLPNSVPKPPITMRVIVPATQCGSLIGKGGSKIKDIREATGASIQVASEMLPHSTERAVTLSGTADAINLATSLKIPGSTKRLHNHIPPKTNVQPIGNRHVSGYNCRTTTTGTGSTATRRGSTYGWRTGTGVQVQQQLVTNALLQQHQFAAVQQELAARAALFNQQLMMPGQQQQASQAQEVYLGQHGLIYTANGVQLGGQDNSKAMEAGAAAAAAAQWQGYDMAAMQQQQQQQQQLLNQYALNQSMLIGAPFMKGGPTPPGTTSGKATSSGASAQGAATSSARFHPY	not soluble
MGSDKIHHHHHHADWKVGIQTWTFHNLTLMETLDKTQQLGMGYAEAFFFQELGAPFPKETYLNYDLSDDNCALLRHEFKIRGIKPIAFGVASYGTNEEWDKFFAFAHKIGAHIVTVEPELNQLDYIESLAKKYDMEVAIHNHPSPCIYASAEVVEKALKGRSPLMGVCADIGHWKRVGEDPLKNLQKLSGRIKVAHLKDLTDKMEDATWGTGILPVKAFVNELKRQHFNGLISIEYDDFKSDIQEIRNSLEFLQKCSK	not soluble
MGQGAPLFADKGGEIAALMRGAYFVAHNVDFDLPFLQAELERAGWPPFAGPTIDTVELARIVLPTAESYKLGDLARQLGLRHDRPHQADSDAEVTAKLFIALLKRLSRLPLMTLEQLRGLARHLKSDIYLLLDAVIAKKRNKAPADRAVAVYRGIALKQPAPEPDESDRRPALASFAAFCEQEPPLPLPGYKRRAGQWEMMRLVYEALSTSQHALIEAGTGLGKSLAYLIPAAFFACEQQERVVISTHTLQLQEQLIRRDWPVLRQIAPFPLRVAVLKGKQNYLSLDKFASFLSEPSDTYDAALLKCQVLVWLLETDSGDLDELNVSSGARLLLSALAIGEEEDGGRHHFFARAKERSERADVVITNHALLLHDLTGPAPLLPPFRHLIIDEAHRLEDAAARCFGEQIGYVSFRLLTAKIAQTIAKWQEAEQDAPNGALVRCQQRLEELQFEGDELFRLLRRYALDKKPARAGRCRYRFSPTDEQSRAWQAAVELCWRLRDLAAALSAEAKPLLSADTSGDFPPSALLSADLAALNRQMAALVRLLTEKEPGVVRWIEADEKGAANAVRLYSQPVDLADFFADQLFMKKRSVVLTSATLTVRGRFTYMAARLGLEDFYPLCRSFPPPFRYEEQAALFVPADMPLVSAVPLEDYAEAVAASVLAIARRLGRRVLVLFPSYELLKLTVDALKTEEEGEPFVLIAQGVQSGSPAKLLRTFLQFEHAVLFGTSSFWEGVDLPGSALDVLVIARLPFAPPDDPVMEAKSERIRLEGGDPFSELALPEAVLRFKQGFGRLIRTEDDKGAVFVLDRRLMASPYGADFLASLPPLSVHEGALSELLDKAETWLS	not soluble
GPLGSMKLRVENPKKAQKHFVQNLNNVVFTNKELEDIYNLSNKEETKEVLKLFKLKVNQFYRHAFGIVNDYNGLLEYKEIFNMMFLKLSVVFDTQRKEANNVEQIKRNIAILDEIMAKADNDLSYFISQNKNFQELWDKAVKLTKEMKIKLKGQKLDLRDGEVAINKVRELFGSDKNVKELWWFRSLLVKGVYLIKRYYEGDIELATTSDFAKAVFE	soluble
GYIDTGLYQNKEDILNSPRRLGSTQTKLGDIGYTDVNGDGKIDGEDQVRIGKPTMPHFTYAFDFSLGYEGFTLSGLLYGTGERYMTFGNRYQSGEGKYLYYENQLNYWRPDNTGADFPRISISSGVNGNNNKAGSTFWMRNASYLRLKDLQLSYDFKYKYLKKCDWLQTCRVNLSGSNLFTISGVSKFFDPETSSTSGDGYPVQRVYSIGVTIGF	not soluble
MAGDPMVMLNTHVVECLQACGRCAAACDYCASSCLREGHGADMARCIALDLDCAAACRLCAAMMARESEFSTHMCTLCARICEVCGDECARHEPRHCQECATACHACASACRAMARPLEHHHHHH	soluble
MGSDKIHHHHHHCNNSNTKDNDKLFIGNGKFCQAKRLNGLGAIYDDDYIFFDCENQIYESYNYSNKKNDKKLNVNCRNSACSHNNDKCEAYVELGEYFVFNSKIYKYYNKSKVVSGENRLYGSIVEEESGKTVFKNSIPTDMSSELAIDDSEAILYVRVLSDDIIKVDGDRHAYLLDKNFNIIYCHYNIGKFPWGAILNGNYYYINDINEIVKVNLTTFESKSIASNGKAFMADNDENFIYYSNEFSELYKLSPDDESSIKIADNALFFSVQNKYIYASGGDNGNKIIYDKNGKIIADYSACVNMGADSAFQINDKIYTIFNGGVAYMDLDGKNYGEMMQ	not soluble
MKVILLITIFLSFYSSAETIVVEDTLFYEVAPTSKDDLLETLNSSSPIREDGNVFHGYTKYEINWRFWWKSNNNQCAFTKVETTLKLKYTMPQLTSSKSDVNVVWSNWYPNLEKHEKGHGKLAKDTAFKIEKDLLSIGPKANCNLLEKAGNKLAYKLMATLKKANKQYDIKTNHGETQNAWLYLHL	not soluble
MSLAQVEQVIQVGHLLDVRTGNYQKNKAILVEAGRISAIVDADQAPKNVQVIDLSTHYVVPGLIDMHVHLTSDPQKHGYRGLVETPTREAIFGVSAAKATLKAGFTTVRNLGAAGFADVSLRDAIDDGEIQGPRMRVAANTICITGGHCDNNLLPHIYNSRSAGVANGPDEVRAKVRENIKYGADVIKFAATGGVLSKNTDVNASQYNFEEMKALIDEAHDRGRIVAAHAHGLQGIKRAIEAGVDSIEHGSFIDDDAIKLAKKHGTYLVMDVYVSDYILSEGEKAGILPESLAKEKKVGLLQRQNFQKAVKAGVKMAYGTDAGVYTHGLNGRQFAYMVQWGMTPLQAIQAATVNAGTLLNWKNEQGQQNVGVLEVGAFADLVAVPVDPLTQEGHHHHHH	soluble
MSLKKRRTIGFLVNDIDVSYSNLVYLMTKKAAEKYDCNLIVYEGRSFNNPSMADSQHQISYSFVDNTRLDGIIITSATIACFISDEEFVEFCKRYEGIPLVSLGIVVPHATSILVDNKPGMKSQVEHLIKDHGFKKIVYISGPPTNTDSVERLEAYCEALRENDIEVDDGLIFYGDFMAQSGYDIIKEIIKNGIEYDAVVCANDEMAFGAIKGIRDLKDAYNLDLTQKGVICGFDDSITSRLVKPSLTTVRQPIEEMCFYAVEAILKKIEGEKVEDVVKLPSVLVKRESCGEGHHHHHH	soluble
MDTDAIRSEIFGQLARPDNSGIPKYRRLSNILVEAIRRGVWQPGDRLPAEEQLTEMTPFSLGTVQRALRALTDEGLVIRMQGHGNFVADQQRQMADPWHCRFLDDESDGIVPIYSKAVQRAVVTPSETGPWQRYLHSGSVMRLDRIINVNDEFRIFSRFYADRELLQPLWHVPLEELDGANFKDIIMRQVGLPITEIDRSVRIRRIDAQAARLIGVAPEATVLFMQAVARAGRDACIYYQEFYIPETGRALQLPEQRPRVHGR	not soluble
MQKETWRFIDSGNASPAFNMALDEALLYWHSEKKIPPVIRFYGWNPATLSVGYFQNIKKEINFEAVHKYNLGFVRRPTGGRGVLHDQELTYSVIVSEEHPEMPATVTEAYRVISEGILQGFRNLGLDAYFAIPRTEKEKESLKNPRSSVCFDAPSWYELVVEGRKVAGSAQTRQKGVILQHGSILLDLDEDKLFDLFLYPSERVRERMQRNFKNKAVAINELIEKRVTMDEARKAFKEGFETGLNIHLEPYELSQEELDFVHHLAETKYASDEWNYKRMAGDPLEHHHHHH	not soluble
MFDFDGYMLRKAKSVNKALEAAVQMKEPLKIHESMRYSLLAGGKRVRPMLCIAACELVGGDESTAMPAACAVEMIHTMSLMHDDLPCMDNDDLRRGKPTNHMAFGESVAVLAGDALLSFAFEHVAAATKGAPPERIVRVLGELAVSIGSEGLVAGQVVDVCSEGMAEVGLDHLEFIHHHKTAALLQGSVVLGAILGGGKEEEVAKLRKFANCIGLLFQVVDDILDVTKSSKELGKTAGKDLVADKTTYPKLIGVEKSKEFADRLNREAQEQLLHFHPHRAAPLIALANYIAYRDN	soluble
MHYLSPLSLSLFLFCIEGHRESFSFFPSHDDGWAEPTARSEGKRERERERERERERGERGPTDTLSLSLSQFT	not soluble
MSLTTRVIALDLDGTLLTPKKTLLPSSIEALARAREAGYQLIIVTGRHHVAIHPFYQALALDTPAICCNGTYLYDYHAKTVLEADPMPVIKALQLIEMLNEHHIHGLMYVDDAMVYEHPTGHVIRTSNWAQTLPPEQRPTFTQVASLAETAQQVNAVWKFALTHDDLPQLQHFGKHVEHELGLECEWSWHDQVDIARGGNSKGKRLTKWVEAQGWSMENVVAFGDNFNDISMLEAAGTGVAMGNADDAVKARANIVIGDNTTDSIAQFIYSHLIEGHHHHHH	soluble
MPITNASPENILRYLHAAGTGTKEAMKSATSPRGILEWFVNFFTCGGVRRSNERWFREVIGKLTTSLLYVNKNAFFDGNKIFLEDVNGCTICLSCGAASENTDPMVIIEVNKNGKTVTDKVDSERFWNVCRMLKLMSKHNIQQPDSLITEDGFLNLRGVNLAHKDFQGEDLSKIDASNADFRETTLSNVNLVGANLCCANLHAVNLMGSNMTKANLTHADLTCANMSGVNLTAAILFGSDLTDTKLNGAKLDKIALTLAKALTGADLTGSQHTPTPLPDYNDRTLFPHPIF	not soluble
MKRFDLRPLKAGIFERLEELIEKEMQPNEVAIFMFEVGDFSNIPKSAEFIQSKGHELLNSLRFNQADWTIVVRKKA	not soluble
MSTIPSEIINWTILNEIISMDDDDSDFSKGLIIQFIDQAQTTFAQMQRQLDGEKNLTELDNLGHFLKGSSAALGLQRIAWVCERIQNLGRKMEHFFPNKTELVNTLSDKSIINGINIDEDDEEIKIQVDDKDENSIYLILIAKALNQSRLEFKLARIELSKYYNTNLH	soluble
MRGMAANQGERIRRRLSTGERREQLLSVGARLFSESPYDEVWIEQVAEIAGVSRGLLYHYFPNKRDFFAAVVERESERMLRMTAAVPGVPVREQLTAGLDAYLEYVRAHAHGYRAFHRADAAGDRAVRRVYQKALAAQERQILAALAADPEFGPAFEERGDVRLAVRGWLAFTTAVCLEWLRDPEPAREQVRDLCARALLGAVAP	not soluble
